Laboratory results published in US20240417458A1 (DISC MEDICINE, published 2024).
Residue numbers refer to the chain shown, from its start. In names and notes the source's numbering stands. Several values for one entry are separate records, joined by “and”; a condition that tells them apart may be missing. Equal values may be shown once.

T1: soluble human RGMc (human, UniProt Q6ZVN8 36-400)
T1 construct: also called huRGMc; soluble hRGMc
T1 sequence: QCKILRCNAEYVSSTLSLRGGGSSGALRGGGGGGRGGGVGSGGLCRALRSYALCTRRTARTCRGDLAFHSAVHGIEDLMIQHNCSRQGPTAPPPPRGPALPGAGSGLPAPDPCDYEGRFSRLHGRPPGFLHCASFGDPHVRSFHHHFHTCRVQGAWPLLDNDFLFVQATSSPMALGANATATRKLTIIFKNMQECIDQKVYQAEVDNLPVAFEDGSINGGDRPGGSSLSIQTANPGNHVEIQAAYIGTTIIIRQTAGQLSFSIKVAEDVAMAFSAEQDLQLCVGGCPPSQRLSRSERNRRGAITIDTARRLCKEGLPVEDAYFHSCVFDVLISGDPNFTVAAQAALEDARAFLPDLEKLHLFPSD

T2: soluble human RGMa (human, UniProt Q96B86 48-422, limits assumed)
T2 construct: Soluble antigen in BIAcore; also called huRGMa; repulsive guidance molecule A
T2 sequence (looked up): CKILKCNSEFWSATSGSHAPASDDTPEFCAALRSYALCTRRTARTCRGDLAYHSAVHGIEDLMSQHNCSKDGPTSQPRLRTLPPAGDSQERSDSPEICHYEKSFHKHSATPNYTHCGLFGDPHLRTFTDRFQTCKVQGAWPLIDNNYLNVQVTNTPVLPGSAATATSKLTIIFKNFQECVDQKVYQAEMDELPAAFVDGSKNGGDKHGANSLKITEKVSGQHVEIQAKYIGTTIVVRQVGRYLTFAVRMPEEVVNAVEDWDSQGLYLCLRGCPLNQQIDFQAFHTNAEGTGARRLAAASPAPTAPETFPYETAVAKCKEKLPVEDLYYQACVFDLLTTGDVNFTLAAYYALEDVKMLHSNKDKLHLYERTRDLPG

T3: membrane-bound human RGMa (human, UniProt Q96B86 169-424)
T3 sequence (looked up): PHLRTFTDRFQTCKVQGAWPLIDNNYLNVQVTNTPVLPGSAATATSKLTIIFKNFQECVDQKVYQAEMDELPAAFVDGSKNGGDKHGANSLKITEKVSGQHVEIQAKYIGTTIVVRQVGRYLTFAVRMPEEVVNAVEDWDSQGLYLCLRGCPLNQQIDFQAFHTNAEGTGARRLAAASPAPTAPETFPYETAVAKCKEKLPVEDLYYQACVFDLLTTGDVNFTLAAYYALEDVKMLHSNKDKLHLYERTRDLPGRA

T4: membrane-bound human RGMc (human, UniProt Q6ZVN8 36-400)
T4 sequence: T1 sequence

T5: soluble rat RGMa (rat, UniProt D4A188 48-421)
T5 construct: Soluble antigen in BIAcore
T5 sequence: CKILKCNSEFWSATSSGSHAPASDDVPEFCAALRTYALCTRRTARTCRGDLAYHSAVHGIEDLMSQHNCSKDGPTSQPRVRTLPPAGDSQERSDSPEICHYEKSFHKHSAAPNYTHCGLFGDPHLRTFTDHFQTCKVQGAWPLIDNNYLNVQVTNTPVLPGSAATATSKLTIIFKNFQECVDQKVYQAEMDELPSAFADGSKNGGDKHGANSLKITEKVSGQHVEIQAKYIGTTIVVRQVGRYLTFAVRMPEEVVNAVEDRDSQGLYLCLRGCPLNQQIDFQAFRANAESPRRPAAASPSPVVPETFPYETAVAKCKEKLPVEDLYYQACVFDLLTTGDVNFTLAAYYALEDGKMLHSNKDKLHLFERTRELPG

B1: hHA-008-QL (antibody, human IgG1, kappa, L234A L235A)
heavy: EVQLVESGGGLVQPGGSLRLSCAASGFTFSNYGMNWVRQAPGKGLEWIGMIYYDSSEKHYADSVKGRFTISRDNSKNTLYLQMNSLRAEDTAVYYCAKGTTPDYWGQGTMVTVSSASTKGPSVFPLAPSSKSTSGGTAALGCLVKDYFPEPVTVSWNSGALTSGVHTFPAVLQSSGLYSLSSVVTVPSSSLGTQTYICNVNHKPSNTKVDKKVEPKSCDKTHTCPPCPAPEAAGGPSVFLFPPKPKDQLMISRTPEVTCVVVDVSHEDPEVKFNWYVDGVEVHNAKTKPREEQYNSTYRVVSVLTVLHQDWLNGKEYKCKVSNKALPAPIEKTISKAKGQPREPQVYTLPPSREEMTKNQVSLTCLVKGFYPSDIAVEWESNGQPENNYKTTPPVLDSDGSFFLYSKLTVDKSRWQQGNVFSCSVLHEALHNHYTQKSLSLSPGK
light: DVVLTQSPLSLPVTLGQPASISCRSSQSLEESDGYTFLHWFQQRPGQSPRLLIYEVSTRFSGVPDRFSGSGSGTDFTLKISRVEAEDVGVYYCFQATHDPLTFGQGTKLEIKRTVAAPSVFIFPPSDEQLKSGTASVVCLLNNFYPREAKVQWKVDNALQSGNSQESVTEQDSKDSTYSLSSTLTLSKADYEKHKVYACEVTHQGLSSPVTKSFNRGEC
notes: hHA-008 with T250Q and M428L (QL) in the Fc besides L234A, L235A; kappa; also called hHA-008-QL (hIgG1mut(LALA)/QL/k)
B2: hHA-004 (antibody, human IgG1, kappa, L234A L235A, V domains shown)
VH: EVQLVESGGGLVQPGGSLRLSCAASGFTFSNYGMNWIRQAPGKGLEWIGMIYYDSSEKHYADSVKGRFTISRDNSKNTLYLQMNSLRAEDTAVYYCAKGTTPDYWGQGTMVTVSS
VL: DVVLTQSPLSLPVTLGQPASISCRSSQSLESSDGDTFLEWFQQRPGQSPRLLIYDVSTRFSGVPDRFSGSGSGTDFTLKISRVEAEDVGVYYCFQVTHDPVTFGQGTKLEIKR
notes: hIgG1 L234A, L235A, kappa
B3: hHA-011 (antibody, human IgG1, kappa, L234A L235A, V domains shown)
VH: B2 VH with I37V, T100S
VL: B2 VL with S31D, D35G, T58S, V96A, V101L, T102S
notes: hIgG1 L234A, L235A, kappa
B4: hHA-009 (antibody, human IgG1, kappa, L234A L235A, V domains shown)
VH: B2 VH with I37V
VL: B2 VL with E30A, S31D, E39H, D55A, T58H, V96A
notes: hIgG1 L234A, L235A, kappa
B5: hHA-001 (antibody, human IgG1, kappa, L234A L235A, V domains shown)
VH: B2 VH
VL: B2 VL with S31T, D55E, V101M
notes: hIgG1 constant region with L234A, L235A, kappa
B6: hHA-003 (antibody, human IgG1, kappa, L234A L235A, V domains shown)
VH: B2 VH
VL: B2 VL with S31T, D55E, T58N
notes: hIgG1 L234A, L235A, kappa
B7: hHA-010 (antibody, human IgG1, kappa, L234A L235A, V domains shown)
VH: B2 VH with I37V, Y104K
VL: B2 VL with S31E, D35Y, D55E, T58H, V96A, V101L
notes: hIgG1 L234A, L235A, kappa
B8: hHA-007 (antibody, human IgG1, kappa, L234A L235A, V domains shown)
VH: B2 VH with E57D, Y104V
VL: B2 VL with S31E, D35Y, E39H, D55E, T58N, V96A
notes: hIgG1 L234A, L235A, kappa
B9: hHA-005 (antibody, human IgG1, kappa, L234A L235A, V domains shown)
VH: B2 VH
VL: B2 VL with S31E, D35Y, T58E, V96A, H98Y, V101L
notes: hIgG1 L234A, L235A, kappa
B10: hHA-006 (antibody, human IgG1, kappa, L234A L235A, V domains shown)
VH: B2 VH with N31Y
VL: B2 VL with S31D, D35G, T58S, V96A, V101L
notes: hIgG1 L234A, L235A, kappa
B11: hHA-002 (antibody, human IgG1, kappa, L234A L235A, V domains shown)
VH: B2 VH
VL: B2 VL with S31T, D55E, T58S, F94M, V101L
notes: hIgG1 L234A, L235A, kappa

These binders were tested against T6, FcRn (assay: SPR (BIAcore) at pH 6.0).
T6 construct: also called neonatal Fc receptor
T6 sequence (P55899 24-297, chain 1 of 2): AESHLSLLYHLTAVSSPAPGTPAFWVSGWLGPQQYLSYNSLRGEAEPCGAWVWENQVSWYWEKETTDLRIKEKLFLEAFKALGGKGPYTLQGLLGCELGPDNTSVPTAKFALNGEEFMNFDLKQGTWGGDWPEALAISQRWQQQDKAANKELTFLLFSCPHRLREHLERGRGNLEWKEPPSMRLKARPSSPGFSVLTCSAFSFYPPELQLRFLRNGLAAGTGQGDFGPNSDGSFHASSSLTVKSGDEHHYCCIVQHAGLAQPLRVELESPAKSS
T6 sequence (P61769 21-119, chain 2 of 2, further chain): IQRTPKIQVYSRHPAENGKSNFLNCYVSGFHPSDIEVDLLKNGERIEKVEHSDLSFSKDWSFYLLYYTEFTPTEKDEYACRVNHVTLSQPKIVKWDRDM

Binder | Kd
B1 | 900 nM and 882 nM

Each binder was assayed against T1, soluble human RGMc (assay: SPR (BIAcore), soluble hRGMc; summary table).

Binder | Kd [nM] | koff [s⁻¹] | kon [M⁻¹ s⁻¹]
B2 | 0.13 | 0.00104 | 7.85e+06
B3 | 0.285 | 0.0014 | 5.05e+06
B4 | 0.71 | 0.0107 | 1.55e+07

What follows are binders tested against T2, soluble human RGMa (assay: SPR; method not named in Example 2).

Binder | Kd [nM] | koff [s⁻¹] | kon [M⁻¹ s⁻¹]
B1 | 0.077 | 3.3e-05 | 430000

The binders below were run against T1, soluble human RGMc (assay: SPR; method not named in Example 2).

Binder | Kd [nM] | koff [s⁻¹] | kon [M⁻¹ s⁻¹]
B1 | 0.12 | 0.00033 | 2.7e+06

What follows are binders tested against T3, membrane-bound human RGMa (assay: cell-based or functional assay).

Binder | IC50 (nM), BMP reporter assay for RGMa [nM]
B2 | 2.01
B3 | 1.66

Target: T3, membrane-bound human RGMa
Assay: cell-based or functional assay
Remark: another data set of the same source

Binder | IC50 (read off the curve) [nM]
B2 | ~2
B3 | ~2

The binders below were run against T4, membrane-bound human RGMc (assay: cell-based or functional assay).

Binder | IC50 (nM), BMP reporter assay for RGMc (BRE-Luc, HEK293) [nM]
B2 | 0.312
B3 | 0.0554
B4 | 1.36

The binders below were run against T5, soluble rat RGMa (assay: SPR (BIAcore);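 note: binding kinetics and affinity of anti-HJV antibodies toward soluble rat RGMa, determined by SPR on a BIAcore instrument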).
Description: (§1) Binding affinities of the anti-HJV antibodies to soluble human RGMa, Rat RGMa and human RGMc were measured by BIAcore analysis.

Binder | Kd [nM] | koff [s⁻¹] | kon [M⁻¹ s⁻¹]
B5 | 0.031 | 3.6e-05 | 1.2e+06
B6 | 0.036 | 3.1e-05 | 870000
B7 | 0.039 | 2.6e-05 | 660000
B8 | < 0.002 | < 1e-06 | 510000
B2 | < 0.00094 | < 1e-06 | 1.1e+06
B3 | 0.074 | 5.2e-05 | 700000
B4 | 0.31 | 0.00021 | 680000
B9 | 0.15 | 0.00021 | 1.4e+06
B10 | 0.032 | 3e-05 | 940000
B11 | 0.053 | 5.5e-05 | 1e+06

Each binder was assayed against T2, soluble human RGMa (assay: SPR (BIAcore);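 note: Anti-HJV antibodies tested for binding against soluble human RGMa by surface plasmon resonance on a BIAcore instrument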).
Description: as §1

Binder | Kd [nM] | koff [s⁻¹] | kon [M⁻¹ s⁻¹]
B5 | 0.038 | 6.7e-05 | 1.8e+06
B6 | 0.12 | 0.00014 | 1.1e+06
B7 | 0.12 | 0.0001 | 850000
B8 | 0.15 | 8.9e-05 | 590000
B2 | 0.015 | 2.2e-05 | 1.4e+06
B3 | 0.11 | 9.9e-05 | 930000
B4 | 0.47 | 0.0004 | 860000
B9 | 0.13 | 0.00025 | 1.9e+06
B10 | 0.12 | 0.00014 | 1.2e+06
B11 | 0.037 | 5e-05 | 1.4e+06

Target: T4, membrane-bound human RGMc
Assay: cell-based or functional assay
Remark: another data set of the same source

Binder | IC50 (read off the curve) [nM]
B2 | ~0.3
B3 | ~0.5
B4 | ~2

Target: T3, membrane-bound human RGMa
Assay: cell-based or functional assay
Remark: another data set of the same source

Binder | Potency on membrane hRGMa (RGMa/BMP reporter assay), IC50 [nM]
B2 | 2
B3 | 1.7

Target: T4, membrane-bound human RGMc
Assay: cell-based or functional assay
Remark: another data set of the same source

Binder | Potency on membrane hRGMc (RGMc/BMP reporter assay), IC50 [nM]
B2 | 0.31
B3 | 0.52
B4 | 1.36

Each binder was assayed against T1, soluble human RGMc (assay: SPR (BIAcore);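 note: Anti-HJV antibodies, binding affinity to soluble human RGMc measured by BIAcore surface plasmon resonance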).
Description: as §1

Binder | Kd [nM] | koff [s⁻¹] | kon [M⁻¹ s⁻¹]
B5 | 0.16 | 0.00165 | 1.08e+07
B6 | 0.3 | 0.0024 | 8.1e+06
B7 | 0.445 | 0.0044 | 9.9e+06
B8 | 0.425 | 0.00215 | 5.05e+06
B2 | 0.13 | 0.00104 | 7.85e+06
B3 | 0.285 | 0.0014 | 5.05e+06
B4 | 0.71 | 0.0107 | 1.55e+07
B9 | 0.32 | 0.0136 | 4.15e+07
B10 | 0.385 | 0.00255 | 6.65e+06
B11 | 0.225 | 0.0017 | 7.65e+06
